“Also recorded” adds a separate entry of the source.

Assay type in all cases: cell-based, Yarrowia lipolytica
Series [1] has as its system β-glucuronidase (GUS) reporter. The series is described as follows: Comparative analysis of promoters by fluorometric assay of GUS expression. As to the method: GUS activity was also assayed by fluorometric determination of the production of 4-methylumbelliferone (4-MU) from the corresponding substrate β-glucuronide (Jefferson, R. A. Plant Mol. Biol. Reporter 5:387-405 (1987)).
Yarrowia lipolytica ATCC #76982 strains containing plasmids pY5-30, PYZGDG, PYZGMG, pDMW212 and pDMW214 were grown from single colonies in 3 mL MM (as described above) at 30° C. to an OD600˜1.0. Then, the 3 mL cultures were each added to a 500 mL flask containing 50 mL MM and grown in a shaking incubator at 30° C. for about 24 hrs. The cells were collected by centrifugation, resuspended in Promega Cell Lysis Buffer and lysed using the BIO 101 Biopulverizer system (Vista, Calif.). After centrifugation, the supernatants were removed and kept on ice.
Similarly, Y. lipolytica strain Y2034 containing plasmids pY5-30, pYAT-GUS, pYGPAT-GUS and pDMW214 constructs, respectively, were grown from single colonies in 10 mL SD medium at 30° C. for 48 hrs to an OD600˜5.0. Two mL of each culture was collected for GUS activity assays, as described below, while 5 mL of each culture was switched into HGM.
Specifically, cells from the 5 mL aliquot were collected by centrifugation, washed once with 5 mL of HGM and resuspended in HGM. The cultures in HGM were then grown in a shaking incubator at 30° C. for 24 hrs. Two mL of each HGM culture were collected for the GUS activity assay, while the remaining culture was allowed to grow for an additional 96 hrs before collecting an additional 2 mL of each culture for the assay.
Each 2 mL culture sample in SD medium was resuspended in 1 mL of 0.5× cell culture lysis reagent (Promega). Resuspended cells were mixed with 0.6 mL of glass beads (0.5 mm diameter) in a 2.0 mL screw cap tube with a rubber O-ring. The cells were then homogenized in a Biospec mini beadbeater (Bartlesville, Okla.) at the highest setting for 90 sec. The homogenization mixtures were centrifuged for 2 min at 14,000 rpm in an Eppendof centrifuge to remove cell debris and beads. The supernatant was used for GUS assay and protein determination.
For each fluorometric assay, 100 μl of extract was added to […] of GUS assay buffer (2 mM 4-methylumbelliferyl-β-D-glucuronide (“MUG”) in extraction buffer) or 200 μl of extract was added to 800 μl of GUS assay buffer. The mixtures were placed at 37° C. Aliquots of 100 μl were taken at 0, 30 and 60 min time points and added to 900 μl of stop buffer (1 M Na2CO3). Each time point was read using a CytoFluor Series 4000 Fluorescence Multi-Well Plate Reader (PerSeptive Biosystems, Framingham, Mass.) set to an excitation wavelength of 360 nm and an emission wavelength of 455 nm. Total protein concentration of each sample was determined using 10 μl of extract and 200 μl of BioRad Bradford reagent or 20 μl of extract and 980 μl of BioRad Bradford reagent (Bradford, M. M. Anal. Biochem. 72:248-254 (1976)). GUS activity was expressed as nmoles of 4-MU per minute per mg of protein.

Series [2] deals with β-glucuronidase (GUS) reporter. Briefly: Comparative analysis of promoters by histochemical analysis of GUS expression. As for the experimental part:
Comparative studies investigating the promoter activities of the TEF, GPD, GPDIN, GPM, GPAT, FBA, FBAIN and YAT1 promoters were performed, by synthesizing constructs comprising each promoter and the E. coli gene encoding β-glucuronidase (GUS) as a reporter gene (Jefferson, R. A. Nature. 14(342):837-838 (1989)). Then, GUS activity was measured by histochemical and fluorometric assays (Jefferson, R. A. Plant Mol. Biol. Reporter 5:387-405 (1987)) and/or by using Real Time PCR for mRNA quantitation.
Yarrowia lipolytica ATCC #76982 strains containing plasmids pY5-30, pYZGDG, pYZGMG, pDMW212 and pDMW214 were grown from single colonies in 3 mL MM at 30° C. to an OD600˜1.0. Then, 100 μl of cells were collected by centrifugation, resuspended in 100 μl of histochemical staining buffer, and incubated at 30° C. Staining buffer was prepared by dissolving 5 mg of 5-bromo-4-chloro-3-indolyl glucuronide (X-Gluc) in 50 μl dimethyl formamide, followed by the addition of 5 mL 50 mM NaPO4, pH 7.0.
In a separate experiment, Y. lipolytica Y2034 strains containing plasmids pY5-30, pYGPAT-GUS, pYAT-GUS and pDMW214 were grown from single colonies in 5 mL SD media at 30° C. for 24 hrs to an OD600˜8.0. Then, 1 mL of cells were collected by centrifugation. The remaining cultures were centrifuged and washed 2× with HGM, resuspended in 5 mL each of HGM and allowed to grow at 30° C. further. After 24 and 120 hrs, ˜0.25 mL of each culture were centrifuged to collect the cells. Cell samples were resuspended individually in 100 μl of histochemical staining buffer (supra). Zymolase 20T (5 μl of 1 mg/mL; ICN Biomedicals, Costa Mesa, Calif.) was added to each, and the mixture incubated at 30° C. […]

For series [3], the system named is β-glucuronidase (GUS) reporter. Briefly: Relative promoter activity rank from comparative GUS reporter studies (histochemical, fluorometric and/or Real Time PCR). The arrangement: key: a ‘1’ corresponds to the promoter with lowest activity; a ‘7’ corresponds to the promoter with highest activity. The note with it: relative to other promoters. As for the experimental part: The activity of GPM is about the same as TEF, while the activity of GPD, FBA, FBAIN, FBAINm, GPDIN, GPAT, YAT1 and EXP1 are all greater than TEF (activity is quantified in a relative manner in the column titled “Activity Rank”, wherein a ‘1’ corresponds to the promoter with lowest activity, while a ‘7’ corresponds to the promoter with highest activity). […] GUS activity in each expressed construct was measured by histochemical and/or fluorometric assays (Jefferson, R. A. Plant Mol. Biol. Reporter 5:387-405 (1987)) and/or by use of Real Time PCR.
(In general: Quantitative PCR measures a nucleic acid by following its amplification.)

Setting [4] is: ATCC #76982 strains, MM, FIG. 5B.

B1: TEF: Y. lipolytica translation elongation factor EF1-α promoter, SEQ ID NO:166 (nucleic acid, listed as Yarrowia lipolytica)
DNA: GACCGGGTTGGCGGCGTATTTGTGTCCCAAAAAACAGCCCCAATTGCCCCAATTGACCCCAAATTGACCCAGTAGCGGGCCCAACCCCGGCGAGAGCCCCCTTCACCCCACATATCAAACCTCCCCCGGTTCCCACACTTGCCGTTAAGGGCGTAGGGTACTGCAGTCTGGAATCTACGCTTGTTCAGACTTTGTACTAGTTTCTTTGTCTGGCCATCCGGGTAACCCATGCCGGACGCAAAATAGACTACTGAAAATTTTTTTGCTTTGTGGTTGGGACTTTAGCCAAGGGTATAAAAGACCACCGTCCCCGAATTACCTTTCCTCTTCTTTTCTCTCTCTCCTTGTCAACTCACACCCGAAATCGTTAAGCATTTCCTTCTGAGTATAAGAATCATTCAAAGGATCCACTAGTTCTAGAGCGGCCGCTTAAACC
modifications: misc_feature: Promoter TEF
In the case of B1, the GUS activity in series [1] (strain Y2034, 24 hr, HGM) is reported as 0.942 nmoles of 4-MU per minute per mg of protein; in series [1] (strain Y2034, 48 hr, SD), 0.401 nmoles of 4-MU per minute per mg of protein; in series [1] (strain Y2034, 120 hr HGM), 0.466 nmoles of 4-MU per minute per mg of protein. In series [1] (switched from SD medium into HGM and grown for 24 hrs), the “increase of promoter activity” value was 2.3 fold. In addition, the “promoter activity by histochemical staining” value in series [2] (setting [4]) is on record as “active”. For the same molecule, the “Activity “Rank”” value in series [3] is given as 1.

B2: GPM: Y. lipolytica phosphoglycerate mutase promoter, SEQ ID NO:160 (nucleic acid, listed as Yarrowia lipolytica)
DNA: GCCTCTGAATACTTTCAACAAGTTACACCCTTCATTAATTCTCACGTGACACAGATTATTAACGTCTCGTACCAACCACAGATTACGACCCATTCGCAGTCACAGTTCACTAGGGTTTGGGTTGCATCCGTTGAGAGCGGTTTGTTTTTAACCTTCTCCATGTGCTCACTCAGGTTTTGGGTTCAGATCAAATCAAGGCGTGAACCACTTTGTTTGAGGACAAATGTGACACAACCAACCAGTGTCAGGGGCAAGTCCGTGACAAAGGGGAAGATACAATGCAATTACTGACAGTTACAGACTGCCTCGATGCCCTAACCTTGCCCCAAAATAAGACAACTGTCCTCGTTTAAGCGCAACCCTATTCAGCGTCACGTCATAATAGCGTTTGGATAGCACTAGTCTATGAGGAGCGTTTTATGTTGCGGTGAGGGCGATTGGTGCTCATATGGGTTCAATTGAGGTGGCGGAACGAGCTTAGTCTTCAATTGAGGTGCGAGCGACACAATTGGGTGTCACGTGGCCTAATTGACCTCGGGTCGTGGAGTCCCCAGTTATACAGCAACCACGAGGTGCATGGGTAGGAGACGTCACCAGACAATAGGGTTTTTTTTGGACTGGAGAGGGTTGGGCAAAAGCGCTCAACGGGCTGTTTGGGGAGCTGTGGGGGAGGAATTGGCGATATTTGTGAGGTTAACGGCTCCGATTTGCGTGTTTTGTCGCTCCTGCATCTCCCCATACCCATATCTTCCCTCCCCACCTCTTTCCACGATAATTTTACGGATCAGCAATAAGGTTCCTTCTCCTAGTTTCCACGTCCATATATATCTATGCTGCGTCGTCCTTTTCGTGACATCACCAAAACACATACAAAAATG
modifications: misc_feature: Promoter GPM
With B2, the “promoter activity by histochemical staining” value in series [2] (setting [4]) is given as “active”. Also, in series [3], the “Activity “Rank”” value was determined as 1.

B3: GPAT: Y. lipolytica glycerol-3-phosphate acyltransferase promoter, SEQ ID NO:164 (nucleic acid, listed as Yarrowia lipolytica)
DNA: CAACTTTTCTTGTCGACCTGAGATACCGAGGTTGCGCAGGGGATCAACTTTTGTGTCTCAGAGGGACCCAAGTGCGTACGGAGAGTACAGTACATACTGTAGCTAACGGTAGCAGGCGAACTACTGGTACATACCTCCCCCGGAATATGTACAGGCATAATGCGTATCTGTGGGACATGTGGTCGTTGCGCCATTATGTAAGCAGCGTGTACTCCTCTGACTGTCCATATGGTTTGCTCCATCTCACCCTCATCGTTTTCATTGTTCACAGGCGGCCACAAAAAAACTGTCTTCTCTCCTTCTCTCTTCGCCTTAGTCTACTCGGACCAGTTTTAGTTTAGCTTGGCGCCACTGGATAAATGAGACCTCAGGCCTTGTGATGAGGAGGTCACTTATGAAGCATGTTAGGAGGTGCTTGTATGGATAGAGAAGCACCCAAAATAATAAGAATAATAATAAAACAGGGGGCGTTGTCATTTCATATCGTGTTTTCACCATCAATACACCTCCAAACAATGCCCTTCATGTGGCCAGCCCCAATATTGTCCTGTAGTTCAACTCTATGCAGCTCGTATCTTATTGAGCAAGTAAAACTCTGTCAGCCGATATTGCCCGACCCGCGACAAGGGTCAACAAGGTGGTGTAAGGCCTTCGCAGAAGTCAAAACTGTGCCAAACAAACATCTAGAGTCTCTTTGGTGTTTCTCGCATATATTTAATCGGCTGTCTTACGTATTTGGCCTCGGTACCGGACTAATTTCGGATCATCCCCAATACGCTTTTTCTTCGCAGCTGTCAACAGTGTCCATGATCTATCCACCTAAATGGGTCATATGAGGCGTATAATTTCGTGGTGCTGATAATAATTCCCATATATTTGACACAAAACTTCCCCCCCTAGACATACATCTCACAATCTCACTTCTTGTGCTTCTGTCACACATCTCCTCCAGCTGACTTCAACTCACACCTCTGCCCCAGTTGGTCTACAGCGGTATAAGGTTTCTCCGCATAGAGGTGCACCACTCCTCCCGATACTTGTTTGTGTGACTTGTGGGTCACGACATATATATCTACACACATTGCGCCACCCTTTGGTTCTTCCAGCACAACAAAAACACGACACGCTAA
modifications: misc_feature: Promoter GPAT
With B3, the GUS activity in series [1] (strain Y2034, 24 hr, HGM) was 2.969 nmoles of 4-MU per minute per mg of protein; in series [1] (strain Y2034, 48 hr, SD), 5.252 nmoles of 4-MU per minute per mg of protein; in series [1] (strain Y2034, 120 hr HGM), 3.050 nmoles of 4-MU per minute per mg of protein. In series [1] (switched from SD medium into HGM for 24 hrs), the “reduction of promoter activity” value worked out at 40%. Moreover, the “promoter activity by histochemical staining” value in series [2] (strain Y2034, 24 hr in SD medium, FIG. 5C) is recorded as “active; also recorded: much stronger than the TEF promoter”. Further, the “Activity “Rank”” value in series [3] is 5.

(Values after US7588931B2, “High arachidonic acid producing strains of Yarrowia lipolytica” (E. I. du Pont de Nemours and Company, priority 2004, dated 2009).)
